Patent publication US11267868 (dated 2022)
Substitutions are numbered along the chain they refer to. Read-outs that look alike come from different tables or passages of the source. Blank lines part the entries; values can stand above or below the binder they belong to.

How the values were obtained:
Assay in all cases: SPR
[1] = target: T1, FcgRIIaR (human, UniProt P12318)
T1 chain: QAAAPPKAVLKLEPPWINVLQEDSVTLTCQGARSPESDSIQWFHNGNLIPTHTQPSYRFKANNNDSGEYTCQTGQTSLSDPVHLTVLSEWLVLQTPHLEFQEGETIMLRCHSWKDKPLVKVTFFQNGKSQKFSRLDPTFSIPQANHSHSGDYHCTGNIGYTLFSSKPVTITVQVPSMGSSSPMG

[2] = target: T2, FcgRIIIaV (human, UniProt P08637)
T2 sequence (P08637 17-208 F176V): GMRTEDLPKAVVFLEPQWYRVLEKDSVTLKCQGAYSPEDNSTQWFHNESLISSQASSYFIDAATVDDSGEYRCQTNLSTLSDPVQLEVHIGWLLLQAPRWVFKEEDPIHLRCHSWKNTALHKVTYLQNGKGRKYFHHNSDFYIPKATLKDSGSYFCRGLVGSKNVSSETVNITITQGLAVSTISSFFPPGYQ

[3] = target: T3, FcgRIIaH (human, UniProt P12318)
T3 chain: T1 chain with R134H

[4] = target: T4, FcgRIIb (human, UniProt P31994)
T4 chain: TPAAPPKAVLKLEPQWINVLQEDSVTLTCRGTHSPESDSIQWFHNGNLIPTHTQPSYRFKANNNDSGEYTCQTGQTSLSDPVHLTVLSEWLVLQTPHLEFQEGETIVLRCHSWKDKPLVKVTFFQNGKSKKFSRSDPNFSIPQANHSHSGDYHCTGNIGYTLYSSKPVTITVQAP

[5] = target: T4, FcgRIIb
[6] = target: T5, FcgRIa (human, UniProt P12314)
T5 chain: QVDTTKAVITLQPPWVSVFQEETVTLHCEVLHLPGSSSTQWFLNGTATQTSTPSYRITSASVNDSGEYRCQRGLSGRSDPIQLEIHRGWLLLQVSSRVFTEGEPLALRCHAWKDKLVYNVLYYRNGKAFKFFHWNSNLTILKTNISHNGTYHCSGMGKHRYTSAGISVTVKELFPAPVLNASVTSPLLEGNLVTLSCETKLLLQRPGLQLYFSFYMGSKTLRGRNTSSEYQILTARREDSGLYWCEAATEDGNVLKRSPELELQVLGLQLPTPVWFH

[7] = target: T2, FcgRIIIaV; remark: listed apart in the source
[8] = target: T1, FcgRIIaR
[9] = target: T3, FcgRIIaH
[10] = target: T2, FcgRIIIaV; remark: listed apart in the source
[11] = target: T3, FcgRIIaH
[12] = target: T1, FcgRIIaR
[13] = target: T5, FcgRIa
[14] = target: T4, FcgRIIb
[15] = target: T5, FcgRIa
[16] = target: T3, FcgRIIaH
[17] = target: T4, FcgRIIb
[18] = target: T5, FcgRIa
[19] = target: T1, FcgRIIaR
[20] = target: T2, FcgRIIIaV; remark: listed apart in the source
[21] = target: T6, mFcgRI (mouse, UniProt P26151)
T6 chain: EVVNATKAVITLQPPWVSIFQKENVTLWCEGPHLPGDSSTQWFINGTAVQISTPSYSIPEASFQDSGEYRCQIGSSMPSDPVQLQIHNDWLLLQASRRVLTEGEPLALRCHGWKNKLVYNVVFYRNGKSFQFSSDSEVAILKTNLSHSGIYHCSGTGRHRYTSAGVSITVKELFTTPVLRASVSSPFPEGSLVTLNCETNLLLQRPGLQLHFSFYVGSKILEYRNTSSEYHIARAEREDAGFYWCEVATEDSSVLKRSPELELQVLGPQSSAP

[22] = target: T7, mFcgRIV (mouse, UniProt A0A0B4J1G0)
T7 chain: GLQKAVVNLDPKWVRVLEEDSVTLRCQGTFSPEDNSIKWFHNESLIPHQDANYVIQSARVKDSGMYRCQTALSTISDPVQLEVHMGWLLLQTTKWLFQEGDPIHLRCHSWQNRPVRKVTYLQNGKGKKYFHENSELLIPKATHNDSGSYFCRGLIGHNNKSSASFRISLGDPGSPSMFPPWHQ

B1: IL6R-P577/IL6R-L (antibody)
chain 1: QVQLQESGPGLVKPSETLSLTCAVSGHSISHDHAWSWVRQPPGEGLEWIGFISYSGITNYNPSLQGRVTISRDNSKNTLYLQMNSLRAEDTAVYYCARSLARTTAMDYWGEGTLVTVSSASTKGPSVFPLAPSSKSTSGGTAALGCLVKDYFPEPVTVSWNSGALTSGVHTFPAVLQSSGLYSLSSVVTVPSSSLGTQTYICNVNHKPSNTKVDKKVEPKSCDKTHTCPPCPAPDLLGDDSVFLFPPKPKDTLMISRTPEVTCVVIDVAEEDGEVKFNWYVDGVEVHNAKTKPREEQDNSTYRVVSVLTVLHQDWLNGKEYKCKVSNKALPRPIEKTISKAKGQPREPQVYTLPPSRDELTKNQVSLTCLVKGFYPSDIAVEWESNGQPENNYKTTPMVLDSDGSFFLYSKLTVDKSRWQQGNVFSCSVMHEALHNHYTQKSLSLSP
chain 2: not shown
Kd [1]: 0.044 µM
Kd [2]: 12 µM
Kd [3]: 1 µM
Kd [4]: 0.0012 µM

B2: IL6R-P694/IL6R-L (antibody)
chain 1: B1 chain 1 with D239G, A269R, D298E, R332A, M398P
chain 2: not shown
Kd [5]: 2.8 µM
Kd [6]: 0.41 µM
Kd [7]: 47 µM
Kd [8]: 61 µM
Kd [9]: 200 µM

B5: IL6R-P587/IL6R-L (antibody)
chain 1: B1 chain 1 with D239G, D298Y, R332A, M398P
chain 2: not shown
Kd [10]: 32 µM
Kd [1]: 0.71 µM
Kd [11]: 14 µM
Kd [12]: 1.2 µM
Kd [2]: 28 µM
Kd [13]: 0.00071 µM
Kd [14]: 0.028 µM
Kd [15]: 0.00021 µM
Kd [3]: 12 µM
Kd [4]: 0.015 µM

B6: IL6R-P699/IL6R-L (antibody)
chain 1: B1 chain 1 with D239G, A269R, E270P, D298Y, R332A, M398P
chain 2: not shown
Kd [5]: 4.1 µM
Kd [6]: 0.69 µM
Kd [7]: 65 µM
Kd [8]: 57 µM
Kd [9]: 250 µM

B8: IL6R-P625/IL6R-L (antibody)
chain 1: B1 chain 1 with L236K, D239G, D298Y, R332A, M398P
chain 2: not shown
Kd [16]: 180 µM
Kd [17]: 1.7 µM
Kd [18]: 0.5 µM
Kd [19]: 24 µM
Kd [20]: 66 µM

Now from value to binder:

Kd [5]: 4 µM
Kd [6]: 0.57 µM
Kd [7]: 44 µM
Kd [8]: 54 µM
Kd [9]: 170 µM
B3: IL6R-P702/IL6R-L (antibody)
chain 1: B1 chain 1 with D239G, F243M, A269R, D298Y, R332A, M398P
chain 2: not shown

Kd [5]: 3.4 µM
Kd [6]: 0.68 µM
Kd [7]: 82 µM
Kd [8]: 71 µM
Kd [9]: 300 µM
B4: IL6R-P712/IL6R-L (antibody)
chain 1: B1 chain 1 with D239G, A269R, E270P, D298E, R332A, M398P
chain 2: not shown

Kd [5]: 10 µM
Kd [6]: 1.5 µM
Kd [7]: 73 µM
Kd [8]: 95 µM
Kd [9]: 310 µM
B7: IL6R-P730/IL6R-L (antibody)
chain 1: B1 chain 1 with D239Q, A269R, E270P, D298E, R332A, M398P
chain 2: not shown

binding result [21]: no binding
binding result [22]: no binding
B9: VH3/L(WT)-mIgG1 (antibody)
chain 1: QVQLQESGPGLVKPSETLSLTCAVSGHSISHDHAWSWVRQPPGEGLEWIGFISYSGITNYNPSLQGRVTISRDNSKNTLYLQMNSLRAEDTAVYYCARSLARTTAMDYWGEGTLVTVSSAKTTPPSVYPLAPGSAAQTNSMVTLGCLVKGYFPEPVTVTWNSGSLSSGVHTFPAVLQSDLYTLSSSVTVPSSTWPSETVTCNVAHPASSTKVDKKIVPRDCGCKPCICTVPEVSSVFIFPPKPKDVLTITLTPKVTCVVVDISKDDPEVQFSWFVDDVEVHTAQTQPREEQFNSTFRSVSELPIMHQDWLNGKEFKCRVNSAAFPAPIEKTISKTKGRPKAPQVYTIPPPKEQMAKDKVSLTCMITDFFPEDITVEWQWNGQPAENYKNTQPIMDTDGSYFVYSKLNVQKSNWEAGNTFTCSVLHEGLHNHHTEKSLSHSPGK
chain 2: not shown
